# Data from the Immune Epitope Database (IEDB).
# Key:
# [1] = target: HLA-B*46:01; experiment: IEDB peptide-MHC binding, purified MHC/competitive/fluorescence; filed as Kd, often an IC50 or EC50 that approximates it; ≥ and ≤ were set here for values at or beyond the usual limits of such assays; details: source organism: SARS-CoV1
# [2] = target: HLA-B*58:01; experiment: IEDB peptide-MHC binding, purified MHC/direct/fluorescence; filed as Kd, often an IC50 or EC50 that approximates it; ≥ and ≤ were set here for values at or beyond the usual limits of such assays
# [3] = target: HLA-B*08:01; experiment: as above
# [4] = target: HLA-B*40:01; experiment: as above
# [5] = target: HLA-C*14:02; experiment: as above; details: source organism: SARS-CoV1
# [6] = target: HLA-B*27:05; experiment: as above
# [7] = target: HLA-C*12:03; experiment: as above; details: source organism: SARS-CoV1
# [8] = target: HLA-B*15:01; experiment: as above
# [9] = target: HLA-C*15:02; experiment: as above; details: source organism: SARS-CoV1
# [10] = target: HLA-C*08:02; experiment: as above
# [11] = target: HLA-A*11:01; experiment: as above
# [12] = target: HLA-A*01:01; experiment: as above
# [13] = target: HLA-A*31:01; experiment: as above
# [14] = target: HLA-B*07:02; experiment: as above
# [15] = target: HLA-A*03:01; experiment: as above
# [16] = target: HLA-C*03:03; experiment: as above; details: source organism: SARS-CoV1
# [17] = target: HLA-A*69:01; experiment: as above
# [18] = target: HLA-A*02:01; experiment: as above
# [19] = target: HLA-B*73:01; experiment: as above; details: source organism: Brucella suis 1330
# [20] = target: HLA-B*44:02; experiment: as above; details: source organism: Brucella melitensis
# [21] = target: HLA-A*26:01; experiment: as above; details: source organism: Brucella melitensis
# [22] = target: HLA-B*07:02; experiment: IEDB peptide-MHC binding, purified MHC/competitive/radioactivity; ≥ and ≤ were set here for values at or beyond the usual limits of such assays
# [23] = target: HLA-A*24:02; experiment: as above; details: source organism: Homo sapiens
# [24] = target: HLA-C*06:02; experiment: IEDB peptide-MHC binding, purified MHC/direct/fluorescence; filed as Kd, often an IC50 or EC50 that approximates it; ≥ and ≤ were set here for values at or beyond the usual limits of such assays; details: source organism: Kurkino virus
# [25] = target: HLA-B*48:01; experiment: as above; details: source organism: Orthohantavirus dobravaense
# [26] = target: HLA-C*07:02; experiment: as above; details: source organism: Kurkino virus
# [27] = target: HLA-A*02:01; experiment: IEDB peptide-MHC binding, purified MHC/competitive/radioactivity; filed as Kd, often an IC50 or EC50 that approximates it; ≥ and ≤ were set here for values at or beyond the usual limits of such assays; details: source organism: Human immunodeficiency virus 1
# [28] = source organism: Bacillus cereus
# [29] = source organism: Brucella melitensis
sequence,measurement,setting,value
KSYEHQTPF,Kd,[1],46.9 nM
same,Kd,[2]; source organism: SARS-CoV1,88 nM
same,Kd,[3]; source organism: SARS-CoV1,14400 nM
same,Kd,[4]; source organism: SARS-CoV1,≥ 91400 nM
same,Kd,[5],93 nM
same,Kd,[6]; source organism: SARS-CoV1,4420 nM
same,Kd,[7],14 nM
same,Kd,[8]; source organism: SARS-CoV1,169 nM
same,Kd,[9],11 nM
same,Kd,[10]; source organism: SARS-CoV1,≥ 20000 nM
same,Kd,[11]; source organism: SARS-CoV1,837 nM
same,Kd,[12]; source organism: SARS-CoV1,≥ 27100 nM
same,Kd,[13]; source organism: SARS-CoV1,186 nM
same,Kd,[14]; source organism: SARS-CoV1,5720 nM
same,Kd,[15]; source organism: SARS-CoV1,89.8 nM
same,Kd,[16],35 nM
YTLNDAPYI,Kd,[17]; [28],2.4 nM
same,Kd,[10]; source organism: Bacillus anthracis str. A0389,181 nM
same,Kd,[18]; [28],38.1 nM
RVISDGYFK,Kd,[2]; [29],≥ 20000 nM
same,Kd,[3]; [29],≥ 20000 nM
same,Kd,[17]; [29],≥ 20000 nM
same,Kd,[4]; [29],≥ 20000 nM
same,Kd,[6]; [29],7180 nM
same,Kd,[19],≥ 20000 nM
same,Kd,[8]; [29],≥ 20000 nM
same,Kd,[20],≥ 20000 nM
same,Kd,[11]; [29],53.8 nM
same,Kd,[12]; [29],≥ 20000 nM
same,Kd,[13]; [29],42 nM
same,Kd,[14]; [29],≥ 20000 nM
same,Kd,[21],≥ 20000 nM
same,Kd,[15]; [29],395 nM
same,Kd,[18]; [29],≥ 20000 nM
FATCGIFAL,IC50,[22]; source organism: Lymphocytic choriomeningitis virus (strain Armstrong) (clone 53b),6230 nM
NYARTEDFF,IC50,[23],67 nM
RRNDGVVQY,Kd,[6]; source organism: Orthohantavirus dobravaense,146 nM
same,Kd,[24],61 nM
same,Kd,[25],≥ 20000 nM
same,Kd,[26],29 nM
TYSVSFDSLF,IC50,[23],14 nM
FPVRPQVPL,Kd,[27],≥ 35000 nM
same,IC50,[22]; source organism: Human immunodeficiency virus 1,16 nM
